In patent US20210318312A1 (TRUSTEES OF PRINCETON UNIVERSITY, published 2021):
Values belong to the binder of their own block, whether it stands above or below them.

Tests used:
[1] = biological target: T1, PDH component X (PDHX), endogenous (human, UniProt O00330 54-501); assay: anti-GFP immunoaffinity purification from MRC5 mitochondria, western blot; confocal co-localization
T1 construct: Endogenous protein in mitochondrial lysates of MRC5 cells
T1 sequence (looked up): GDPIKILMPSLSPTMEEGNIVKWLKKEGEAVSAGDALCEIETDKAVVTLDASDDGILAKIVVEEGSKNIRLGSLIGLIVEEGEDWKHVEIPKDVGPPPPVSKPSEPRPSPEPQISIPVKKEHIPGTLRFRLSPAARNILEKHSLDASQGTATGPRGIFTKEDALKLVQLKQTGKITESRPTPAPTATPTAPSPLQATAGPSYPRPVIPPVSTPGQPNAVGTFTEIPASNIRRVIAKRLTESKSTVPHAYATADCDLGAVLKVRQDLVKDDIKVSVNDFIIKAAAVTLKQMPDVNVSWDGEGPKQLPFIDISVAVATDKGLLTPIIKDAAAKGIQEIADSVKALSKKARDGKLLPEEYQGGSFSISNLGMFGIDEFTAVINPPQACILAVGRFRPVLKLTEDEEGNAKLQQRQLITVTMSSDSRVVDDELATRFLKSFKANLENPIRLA
Procedure: (§1) Western Immunoblotting. 10 μg of protein from each fraction was resuspended in L SDS Sample Buffer. Each sample was subjected to SDS-PAGE, transferred to nitrocellulose membranes (GE Healthcare Life Sciences, cat. #45-000-929), and blocked in blocked in 5% (w/v) skim milk powder in Tris-buffered saline with 0.05% (v/v) Tween-20 (TBST) for 1 hr at RT. Membranes were probed according to manufacturer's instructions, with the following primary antibodies: mouse anti-GFP (Roche, cat. #11814460001), rabbit anti-LAMP1 (Abcam, cat. #ab24170), rabbit anti-COXIV (Cell Signaling Technology, cat. #4844), rabbit anti-DLAT (Santa Cruz Biotechnology, cat. #sc-32925), or rabbit anti-PDHX (Santa Cruz Biotechnology, sc-98752), for 1 h in TBST, followed by 1 hr incubation in corresponding horseradish peroxidase (HRP)-conjugated secondary antibodies (Jackson ImmunoResearch Laboratories). All antibody incubations were carried out at RT with gentle agitation, and blots washed three times with TBST for 10 min after each incubation. Immuno-targets were detected using ECL (GE Healthcare Life Sciences, cat. #RPN2106).
(§2) Immunoaffinity Purification. SIRT4-EGFP and control EGFP immunoaffinity purifications (IPs) from MRC5 cells were performed using M270 Epoxy Dynabeads (Invitrogen, cat. #14302D) coupled with in-house generated rabbit anti-GFP polyclonal antibodies, as described previously²⁹. […]

[2] = biological target: T2, dihydrolipoyllysine acetyltransferase (DLAT), endogenous (human, UniProt P10515 87-647, lipoyl-lysine at K132 and K259); assay: as above
T2 construct: Endogenous protein in mitochondrial lysates of MRC5 cells; also called E2 component of the PDHC
T2 sequence (looked up): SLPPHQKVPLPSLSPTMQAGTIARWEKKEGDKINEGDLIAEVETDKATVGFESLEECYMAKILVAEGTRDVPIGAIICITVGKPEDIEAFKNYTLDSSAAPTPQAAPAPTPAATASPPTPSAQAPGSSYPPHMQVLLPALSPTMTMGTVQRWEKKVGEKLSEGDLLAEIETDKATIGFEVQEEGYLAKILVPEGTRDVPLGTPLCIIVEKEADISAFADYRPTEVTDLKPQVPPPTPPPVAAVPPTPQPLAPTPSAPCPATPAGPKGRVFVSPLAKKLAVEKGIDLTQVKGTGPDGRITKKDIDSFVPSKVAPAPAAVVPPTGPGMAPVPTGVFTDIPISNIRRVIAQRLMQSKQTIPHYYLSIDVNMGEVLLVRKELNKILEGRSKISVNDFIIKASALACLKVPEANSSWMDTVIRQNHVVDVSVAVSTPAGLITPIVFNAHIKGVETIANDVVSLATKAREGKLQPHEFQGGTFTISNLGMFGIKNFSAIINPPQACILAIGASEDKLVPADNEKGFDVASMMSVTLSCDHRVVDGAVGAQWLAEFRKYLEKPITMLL
Procedure: as §1, §2

SIRT3, endogenous = biological target: T3, SIRT3, endogenous (human, UniProt Q9NTG7 102-399, limits assumed); assay: immunoaffinity purification of SIRT4-EGFP from MRC5 mitochondria with mass spectrometry (IP-MS), SAINT scoring
T3 sequence (looked up): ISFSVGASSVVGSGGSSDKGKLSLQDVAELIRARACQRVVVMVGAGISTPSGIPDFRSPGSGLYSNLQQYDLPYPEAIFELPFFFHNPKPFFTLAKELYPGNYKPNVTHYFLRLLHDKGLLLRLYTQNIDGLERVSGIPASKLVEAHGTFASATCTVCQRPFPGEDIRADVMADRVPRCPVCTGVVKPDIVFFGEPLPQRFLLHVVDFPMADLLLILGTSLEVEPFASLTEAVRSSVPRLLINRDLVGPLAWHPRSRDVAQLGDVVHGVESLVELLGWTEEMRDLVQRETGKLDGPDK
Procedure: Immunoaffinity Purification. SIRT4-EGFP and control EGFP immunoaffinity purifications (IPs) from MRC5 cells were performed using M270 Epoxy Dynabeads (Invitrogen, cat. #14302D) coupled with in-house generated rabbit anti-GFP polyclonal antibodies, as described previously²⁹. Pooled mitochondria from fractions 3 and 4 from the OptiPrep™ gradient were resuspended in 1 mL optimized Lysis Buffer (20 mM HEPES-KOH, pH 7.4, 0.1 M KOAc, 2 mM MgCl₂, 0.1% Tween-20, 1 μM ZnCl₂, 1 μM CaCl2)), with 0.6% Triton X-100, 200 mM NaCl, and 1/100 (v/v) protease inhibitor cocktail (Sigma, cat. #P8340). Lysed mitochondria were vortexed three times for 20 sec each, and mixed by rotation for 10 min at 4° C. Insoluble material (pellet) was removed by centrifugation at 5000×g for 10 min. The supernatant was collected and SIRT4-EGFP or free EGFP (negative control) was immunoisolated by incubation with 7 mg of GFP-coupled magnetic beads for 60 min at 4° C. […]
To investigate potential endogenous substrates of SIRT4, proteomics was used to define its endogenous mitochondrial protein interactions. […] Using direct fluorescence microscopy (co-localization with MitoTracker, FIG. 4) and density-based organelle fractionation (co-isolation with the mitochondrial COX IV, FIG. 1a), we confirmed its mitochondrial localization. […]

[3] = biological target: T2, dihydrolipoyllysine acetyltransferase …; assay: reciprocal immunoaffinity purification of DLAT from wild-type fibroblasts, western blot (FIG. 1F)

binding result [1]: binds | binding result [2]: binds | binding result (SIRT3, endogenous): no binding
B1: SIRT4-EGFP (enzyme)
chain: IGLFVPASPPLDPEKVKELQRFITLSKRLLVMTGAGISTESGIPDYRSEKVGLYARTDRRPIQHGDFVRSAPIRQRYWARNFVGWPQFSSHQPNPAHWALSTWEKLGKLYWLVTQNVDALHTKAGSRRLTELHGCMDRVLCLDCGEQTPRGVLQERFQVLNPTWSAEAHGLAPDGDVFLSEEQVRSFQVPTCVQCGGHLKPDVVFFGDTVNPDKVDFVHKRVKEADSLLVVGSSLQVYSGYRFILTAWEKKLPIAILNIGPTRSDDLACLKLNSRCGELLPLIDPC
notes: Stably expressed in MRC5 fibroblasts and immunoisolated from mitochondrial lysate with anti-GFP beads; also called SIRT4-OE; not shown: EGFP (enhanced green fluorescent protein, ORF of pEGFP-N1), fused C-terminal of SIRT4; linker

binding result [3]: binds
B2: endogenous SIRT4 (enzyme)
chain: B1 chain
notes: Endogenous SIRT4 of wild-type MRC5 fibroblasts
